Assay results from US7427498B2, “Composition, methods and reagents for the synthesis of a soluble form of human PHEX” (Universite De Montreal, priority 1999, dated 2008).
Entries after “also recorded” stand apart in the source; their conditions may differ.

T1: PTHrP107-139, P12272
T1 chain: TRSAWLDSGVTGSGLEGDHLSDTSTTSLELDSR


Tests used:
secPHEX = assay: Inhibition of secPHEX enzymatic activity (cleavage of PTHrP107-139, RP-HPLC); type: biochemical, human; conditions: 0.001 M inhibitor added to the reaction mixture
Procedure: (§1) FIG. 6: Enzymatic assay for secPHEX. Purified secPHEX (2 μg) was incubated in the presence of 10 μg PTHrP107-139 and the reaction mixture analyzed by RP-HPLC.
(§2) An aliquot of purified PHEX containing 2 μg of protein was incubated for 15 min at 37° C. in a volume of 200 μl of 50 mM MES (2-(N-Morpholinoethanesulfonic acid, pH 6.5, containing 150 mM NaCl and 10 μg of PTHrP107-139 as a substrate. After the incubation period, the hydrolysis was stopped by the addition of trifluoroacetic acid to a final concentration of 0.1%. Identification of peptide products was performed by reverse phase high performance liquid chromatography (RP-HPLC) on a C18 μBondapak analytical column (Waters) with a UV detector set at 214 nm. Peptides were resolved with a linear gradient of 5% B to 85% B in 45 min at the flow rate of 0.4 ml/min [mobile phase A=0.1% trifluoroacetic acid; mobile phase B=80% acetonitrile (CH3CN), 0.1% trifluoroacetic acid].

PTHrP107-139 = assay: Assay for the activity of PHEX: digestion of PTHrP107-139 by purified secPHEX, RP-HPLC; type: biochemical
Procedure: as §1, §2

PTHrP107-139, P12272 = target: T1, PTHrP107-139, P12272

Molecule | inhibition of secPHEX enzymatic activity (degradation of PTHrP107-139) (secPHEX) | PTHrP107-139 peak on the chromatogram, % of its original surface (PTHrP107-139; 2 μg secPHEX, 10 μg PTHrP107-139, 15 min at 37° C., 50 mM MES pH 6.5, 150 mM NaCl) | enzymatic activity in other buffers (PTHrP107-139; Acetate, HEPES and Tris buffers covering a pH range from 4.0 to 8.5) | enzymatic activity on PTHrP107-139 (qualitative) (PTHrP107-139; purified secPHEX, conditions of Methods) | PTHrP107-139 peak on the chromatogram (RP-HPLC) after 15 min of incubation (PTHrP107-139, P12272)
O=C(O)CN(CCN(CC(=O)O)CC(=O)O)CC(=O)O [EDTA] | totally inhibited; also recorded: fully inhibited |  |  |  | 
c1cnc2c(c1)ccc1cccnc12 [O-phenantrolin] | fully inhibited |  |  |  | 
secPHEX, soluble secreted form of recombinant human PHEX (construct 3, pCDNA3/RSV/PHEX-MutE) (protein) MEAETGSSVETGKKANRGTRIALVVFVLTVIAQQTTSQGLLSLQAKQEYCLKPECIEAAAAILSKVNLSVDPCDNFFRFACDGWISNNPIPEDMPSYGVYPWLRHNVDLKLKELLEKSISRRRDTEAIQKAKILYSSCMNEKAIEKADAKPLLHILRHSPFRWPVLESNIGPEGVWSERKFSLLQTLATFRGQYSNSVFIRLYVSPDDKASNEHILKLDQATLSLAVREDYLDNSTEAKSYRDALYKFMVDTAVLLGANSSRAEHDMKSVLRLEIKIAEIMIPHENRTSEAMYNKMNISELSAMIPQFDWLGYIKKVIDTRLYPHLKDISPSENVVVRVPQYFKDLFRILGSERKKTIANYLVWRMVYSRIPNLSRRFQYRWLEFSRVIQGTTTLLPQWDKCVNFIESALPYVVGKMFVDVYFQEDKKEMMEELVEGVRWAFIDMLEKENEWMDAGTKRKAKEKARAVLAKVGYPEFIMNDTHVNEDLKAIKFSEADYFGNVLQTRKYLAQSDFFWLRKAVPKTEWFTNPTTVNAFYSASTNQIRFPAGELQKPFFWGTEYPRSLSYGAIGVIVGHEFTHGFDNNGRKYDKNGNLDPWWSTESEEKFKEKTKCMINQYSNYYWKKAGLNVKGKRTLGENIADNGGLREAFRAYRKWINDRRQGLEEPLLPGITFTNNQLFFLSYAHVRCNSYRPEAAREQVQIGAHSPPQFRVNGAISNSEEFQKAFNCPPNSTMNRGMDSCRLW |  | 15% | Activity was also observed | active; also recorded: can degrade this peptide | PTHrP107-139 peak on the chromatogram was decreased to 15% of its original surface after only 15 min of incubation
